Source: patent publication US20180305427A1 (ACCELERON PHARMA, published 2018)
Values belong to the molecule of their own block, whether it stands above or below them.

Columns and labels:
[1] = target: myostatin (R&D Systems) (UniProt O14793); test: cell-based or functional assay
[2] = target: T1, myostatin (R&D Systems) (UniProt O14793 267-375); test: cell-based or functional assay
T1 sequence (looked up): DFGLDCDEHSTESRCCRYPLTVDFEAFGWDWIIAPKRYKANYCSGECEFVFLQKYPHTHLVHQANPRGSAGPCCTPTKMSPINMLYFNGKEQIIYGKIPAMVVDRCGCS

IC50 (nM), inhibition of myostatin signaling, pGL3(CAGA)12 reporter gene assay in A204 cells [1]: > 100 nM
Molecule: Dual-arm WFIKKN2-G1Fc (from UniProt Q8TEU8 35-576) (Fc fusion)

IC50 (nM), inhibition of myostatin signaling, pGL3(CAGA)12 reporter gene assay in A204 cells [1]: 2.9 nM
Molecule: Single-arm WFIKKN2-G1Fc (from UniProt P0DOX5 209-449) (Fc fusion)

IC50 (nM), inhibition of myostatin signaling, pGL3(CAGA)12 reporter gene assay in A204 cells [2]: 1.4 nM
B1: Single-chain WFIKKN2-His6 (other)
chain: LPPIRYSHAGICPNDMNPNLWVDAQSTCRRECETDQECETYEKCCPNVCGTKSCVAARYMDVKGKKGPVGMPKEATCDHFMCLQQGSECDIWDGQPVCKCKDRCEKEPSFTCASDGLTYYNRCYMDAEACSKGITLAVVTCRYHFTWPNTSPPPPETTMHPTTASPETPELDMAAPALLNNPVHQSVTMGETVSFLCDVVGRPRPEITWEKQLEDRENVVMRPNHVRGNVVVTNIAQLVIYNAQLQDAGIYTCTARNVAGVLRADFPLSVVRGHQAAATSESSPNGTAFPAAECLKPPDSEDCGEEQTRWHFDAQANNCLTFTFGHCHRNLNHFETYEACMLACMSGPLAACSLPALQGPCKAYAPRWAYNSQTGQCQSFVYGGCEGNGNNFESREACEESCPFPRGNQRCRACKPRQKLVTSFCRSDFVILGRVSELTEEPDSGRALVTVDEVLKDEKMGLKFLGQEPLEVTLLHVDWACPCPNVTVSEMPLIIMGEVDGGMAMLRPDSFVGASSARRVRKLREVMHKKTCDVLKEFLGLHHHHHHH
